In the assay the target is FZD1/2/4/5/7/8. Put plainly: cell-based or functional assay.

The values that follow come from patent US20260250398A1.

Numbering of substitutions follows the chain as printed.

B1: CM0011 (FZD Diabody-Fc-LRP Diabody; paratopes 5019; 2539, 2542) (bispecific antibody)
chain 1: MNLLLILTFVAAAVAEFEVQLVESGGGLVQPGGSLRLSCAASGFNIGSSSIHWVRQAPGKGLEWVASIYSAFASTSYADSVKGRFTISADTSKNTAYLQMNSLRAEDTAVYYCARYHFPFGFALDYWGQGTLVTVSSGGGGSDIQMTQSPSSLSASVGDRVTITCRASQSVSSAVAWYQQKPGKAPKLLIYSASSLYSGVPSRFSGSRSGTDFTLTISSLQPEDFATYYCQQGVYLFTFGQGTKVEIKLEDKTHTKVEPKSSDKTHNCPPCPAPELLGGPSVFLFPPKPKDTLMISRTPEVTCVVVDVSHEDPEVKFNWYVDGVEVHNAKTKPREEQYNSTYRVVSVLTVLHQDWLNGKEYKCKVSNKALPAPIEKTISKAKGQPREPQVYTLPPIRELMTSNQVSLSCAVKGFYPSDIAVEWESNGQPENNYKTTPPVLDSDGSFFLVSKLTVDKSRWQQGNVFSCSVMHEALHNHYTQKSLSLSPGKSGSETPGTSESATPESGGGEVQLVESGGGLVQPGGSLRLSCAASGFNISSYYIHWVRQAPGKGLEWVASIYSSYGYTSYADSVKGRFTISADTSKNTAYLQMNSLRAEDTAVYYCARTVRGSKKPYFSGWAMDYWGQGTLVTVSSGGGGSDIQMTQSPSSLSASVGDRVTITCRASQSVSSAVAWYQQKPGKAPKLLIYSASSLYSGVPSRFSGSRSGTDFTLTISSLQPEDFATYYCQQYSWGPFTFGQGTKVEIK
chain 2: MNLLLILTFVAAAVAEFEVQLVESGGGLVQPGGSLRLSCAASGFNIGSSSIHWVRQAPGKGLEWVASIYSAFASTSYADSVKGRFTISADTSKNTAYLQMNSLRAEDTAVYYCARYHFPFGFALDYWGQGTLVTVSSGGGGSDIQMTQSPSSLSASVGDRVTITCRASQSVSSAVAWYQQKPGKAPKLLIYSASSLYSGVPSRFSGSRSGTDFTLTISSLQPEDFATYYCQQGVYLFTFGQGTKVEIKLEDKTHTKVEPKTSDKTHTCPPCPAPELLGGPSVFLFPPKPKDTLMISRTPEVTCVVVDVSHEDPEVKFNWYVDGVEVHNAKTKPREEQYNSTYRVVSVLTVLHQDWLNGKEYKCKVSNKALPAPIEKTISKAKGQPREPMVFDLPPSREEMTKNQVSLWCMVKGFYPSDIAVEWESNGQPENNYKTTPPVLDSDGSFFLYSKLTVDKSRWQQGNVFSCSVMHEALHNHYTQKSLSLSPGKSGSETPGTSESATPESGGGEVQLVESGGGLVQPGGSLRLSCAASGFNISYSSIHWVRQAPGKGLEWVAYISSYYGYTYYADSVKGRFTISADTSKNTAYLQMNSLRAEDTAVYYCARAHYFPWAGAMDYWGQGTLVTVSSGGGGSDIQMTQSPSSLSASVGDRVTITCRASQSVSSAVAWYQQKPGKAPKLLIYSASSLYSGVPSRFSGSRSGTDFTLTISSLQPEDFATYYCQQYYWPITFGQGTKVEIK
B1 gave a TOPFLASH % Wnt Maxima of 63 % Wnt Maxima and a TOPFLASH EC50 of 0.3 nM.

B2: CM0126 (FZD Diabody-Fc-LRP Diabody; paratopes 5016; 2539, 2542) (bispecific antibody)
chain 1: B1 chain 1 with G47H, S67A, I68T, A71S, A73G, T75I, S76T, F118H, F122Y
chain 2: B1 chain 2 with G47H, S67A, I68T, A71S, A73G, T75I, S76T, F118H, F122Y
Consider B2, for which the TOPFLASH % Wnt Maxima turned out to be 52 % Wnt Maxima and the TOPFLASH EC50 came to 0.3 nM.

B3: CT0001 (FZD IgG-LRP Diabody; paratopes 5016; 2539, 2542) (bispecific antibody)
heavy 1: EVQLVESGGGLVQPGGSLRLSCAASGFNIHSSSIHWVRQAPGKGLEWVAATYSSFGSITYADSVKGRFTISADTSKNTAYLQMNSLRAEDTAVYYCARYHHPFGYALDYWGQGTLVTVSSASTKGPSVFPLAPSSKSTSGGTAALGCLVKDYFPEPVTVSWNSGALTSGVHTFPAVLQSSGLYSLSSVVTVPSSSLGTQTYICNVNHKPSNTKVDKKVEPKSCDKTHTCPPCPAPELLGGPSVFLFPPKPKDTLMISRTPEVTCVVVDVSHEDPEVKFNWYVDGVEVHNAKTKPREEQYNSTYRVVSVLTVLHQDWLNGKEYKCKVSNKALPAPIEKTISKAKGQPREPQVYTLPPIRELMTSNQVSLSCAVKGFYPSDIAVEWESNGQPENNYKTTPPVLDSDGSFFLVSKLTVDKSRWQQGNVFSCSVMHEALHNHYTQKSLSLSPGKSGSETPGTSESATPESGGGEVQLVESGGGLVQPGGSLRLSCAASGFNISSYYIHWVRQAPGKGLEWVASIYSSYGYTSYADSVKGRFTISADTSKNTAYLQMNSLRAEDTAVYYCARTVRGSKKPYFSGWAMDYWGQGTLVTVSSGGGGSDIQMTQSPSSLSASVGDRVTITCRASQSVSSAVAWYQQKPGKAPKLLIYSASSLYSGVPSRFSGSRSGTDFTLTISSLQPEDFATYYCQQYSWGPFTFGQGTKVEIK
heavy 2: EVQLVESGGGLVQPGGSLRLSCAASGFNIHSSSIHWVRQAPGKGLEWVAATYSSFGSITYADSVKGRFTISADTSKNTAYLQMNSLRAEDTAVYYCARYHHPFGYALDYWGQGTLVTVSSASTKGPSVFPLAPSSKSTSGGTAALGCLVKDYFPEPVTVSWNSGALTSGVHTFPAVLQSSGLYSLSSVVTVPSSSLGTQTYICNVNHKPSNTKVDKKVEPKSCDKTHTCPPCPAPELLGGPSVFLFPPKPKDTLMISRTPEVTCVVVDVSHEDPEVKFNWYVDGVEVHNAKTKPREEQYNSTYRVVSVLTVLHQDWLNGKEYKCKVSNKALPAPIEKTISKAKGQPREPMVFDLPPSREEMTKNQVSLWCMVKGFYPSDIAVEWESNGQPENNYKTTPPVLDSDGSFFLYSKLTVDKSRWQQGNVFSCSVMHEALHNHYTQKSLSLSPGKSGSETPGTSESATPESGGGEVQLVESGGGLVQPGGSLRLSCAASGFNISYSSIHWVRQAPGKGLEWVAYISSYYGYTYYADSVKGRFTISADTSKNTAYLQMNSLRAEDTAVYYCARAHYFPWAGAMDYWGQGTLVTVSSGGGGSDIQMTQSPSSLSASVGDRVTITCRASQSVSSAVAWYQQKPGKAPKLLIYSASSLYSGVPSRFSGSRSGTDFTLTISSLQPEDFATYYCQQYYWPITFGQGTKVEIK
light: DIQMTQSPSSLSASVGDRVTITCRASQSVSSAVAWYQQKPGKAPKLLIYSASSLYSGVPSRFSGSRSGTDFTLTISSLQPEDFATYYCQQGVYLFTFGQGTKVEIKRTVAAPSVFIFPPSDEQLKSGTASVVCLLNNFYPREAKVQWKVDNALQSGNSQESVTEQDSKDSTYSLSSTLTLSKADYEKHKVYACEVTHQGLSSPVTKSFNRGEC
With B3, the TOPFLASH % Wnt Maxima came to 57 % Wnt Maxima and the TOPFLASH EC50 stood at 0.3 nM.
